The target of the experiment is T1, GST-Sirt1 (human, UniProt Q96EB6 1-747).
T1 sequence (looked up): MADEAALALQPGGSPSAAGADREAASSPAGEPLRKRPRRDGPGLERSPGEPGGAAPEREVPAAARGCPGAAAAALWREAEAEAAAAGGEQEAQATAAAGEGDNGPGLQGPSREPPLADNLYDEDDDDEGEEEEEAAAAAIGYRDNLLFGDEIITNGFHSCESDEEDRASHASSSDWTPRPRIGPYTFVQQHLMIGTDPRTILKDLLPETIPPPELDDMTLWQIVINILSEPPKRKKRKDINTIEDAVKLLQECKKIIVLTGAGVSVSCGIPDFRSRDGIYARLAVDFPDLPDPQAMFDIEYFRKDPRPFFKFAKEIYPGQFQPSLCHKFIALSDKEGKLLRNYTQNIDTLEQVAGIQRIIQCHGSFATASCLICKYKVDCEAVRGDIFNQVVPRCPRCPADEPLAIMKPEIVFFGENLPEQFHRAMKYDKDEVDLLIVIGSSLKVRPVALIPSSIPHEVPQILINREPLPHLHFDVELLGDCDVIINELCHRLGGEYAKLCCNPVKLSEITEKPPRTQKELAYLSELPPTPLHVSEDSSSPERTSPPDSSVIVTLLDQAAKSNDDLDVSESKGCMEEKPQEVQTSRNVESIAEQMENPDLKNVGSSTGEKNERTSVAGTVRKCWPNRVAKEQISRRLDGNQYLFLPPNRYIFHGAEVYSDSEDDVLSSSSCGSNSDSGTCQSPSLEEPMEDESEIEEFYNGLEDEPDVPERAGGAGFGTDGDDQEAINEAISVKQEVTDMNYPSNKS
The experiment is described as follows: pull-down.

B1: MBP-CHCHD2-His (CHCHD2-isoform2) (natural protein, human, UniProt Q9Y6H1 1-151, looked up)
chain: MPRGSRSRTSRMAPPASRAPQMRAAPRPAPVAQPPAAAPPSAVGSSAAAPRQPGLMAQMATTAAGVAVGSAVGHTLGHAITGGFSGGSNAEPARPDITYQEPQGTQPAQQQQPCLYEIKQFLECAQNQGDIKLCEGFNEVLKQCRLANGLA
On to B1, for which the binding result is “binds”.

For the origin of these results see PMC10300302 (Cell Insight, 2023).
